{
  "source": "paper PMC9486512",
  "about": "(Zoological Research, 2022)",
  "note": "Ends that are not written are not given here.",
  "data": [
    {"target": "human voltage-gated sodium ion channel Nav1.7 (human)", "sequence (Q15858 whole entry)": "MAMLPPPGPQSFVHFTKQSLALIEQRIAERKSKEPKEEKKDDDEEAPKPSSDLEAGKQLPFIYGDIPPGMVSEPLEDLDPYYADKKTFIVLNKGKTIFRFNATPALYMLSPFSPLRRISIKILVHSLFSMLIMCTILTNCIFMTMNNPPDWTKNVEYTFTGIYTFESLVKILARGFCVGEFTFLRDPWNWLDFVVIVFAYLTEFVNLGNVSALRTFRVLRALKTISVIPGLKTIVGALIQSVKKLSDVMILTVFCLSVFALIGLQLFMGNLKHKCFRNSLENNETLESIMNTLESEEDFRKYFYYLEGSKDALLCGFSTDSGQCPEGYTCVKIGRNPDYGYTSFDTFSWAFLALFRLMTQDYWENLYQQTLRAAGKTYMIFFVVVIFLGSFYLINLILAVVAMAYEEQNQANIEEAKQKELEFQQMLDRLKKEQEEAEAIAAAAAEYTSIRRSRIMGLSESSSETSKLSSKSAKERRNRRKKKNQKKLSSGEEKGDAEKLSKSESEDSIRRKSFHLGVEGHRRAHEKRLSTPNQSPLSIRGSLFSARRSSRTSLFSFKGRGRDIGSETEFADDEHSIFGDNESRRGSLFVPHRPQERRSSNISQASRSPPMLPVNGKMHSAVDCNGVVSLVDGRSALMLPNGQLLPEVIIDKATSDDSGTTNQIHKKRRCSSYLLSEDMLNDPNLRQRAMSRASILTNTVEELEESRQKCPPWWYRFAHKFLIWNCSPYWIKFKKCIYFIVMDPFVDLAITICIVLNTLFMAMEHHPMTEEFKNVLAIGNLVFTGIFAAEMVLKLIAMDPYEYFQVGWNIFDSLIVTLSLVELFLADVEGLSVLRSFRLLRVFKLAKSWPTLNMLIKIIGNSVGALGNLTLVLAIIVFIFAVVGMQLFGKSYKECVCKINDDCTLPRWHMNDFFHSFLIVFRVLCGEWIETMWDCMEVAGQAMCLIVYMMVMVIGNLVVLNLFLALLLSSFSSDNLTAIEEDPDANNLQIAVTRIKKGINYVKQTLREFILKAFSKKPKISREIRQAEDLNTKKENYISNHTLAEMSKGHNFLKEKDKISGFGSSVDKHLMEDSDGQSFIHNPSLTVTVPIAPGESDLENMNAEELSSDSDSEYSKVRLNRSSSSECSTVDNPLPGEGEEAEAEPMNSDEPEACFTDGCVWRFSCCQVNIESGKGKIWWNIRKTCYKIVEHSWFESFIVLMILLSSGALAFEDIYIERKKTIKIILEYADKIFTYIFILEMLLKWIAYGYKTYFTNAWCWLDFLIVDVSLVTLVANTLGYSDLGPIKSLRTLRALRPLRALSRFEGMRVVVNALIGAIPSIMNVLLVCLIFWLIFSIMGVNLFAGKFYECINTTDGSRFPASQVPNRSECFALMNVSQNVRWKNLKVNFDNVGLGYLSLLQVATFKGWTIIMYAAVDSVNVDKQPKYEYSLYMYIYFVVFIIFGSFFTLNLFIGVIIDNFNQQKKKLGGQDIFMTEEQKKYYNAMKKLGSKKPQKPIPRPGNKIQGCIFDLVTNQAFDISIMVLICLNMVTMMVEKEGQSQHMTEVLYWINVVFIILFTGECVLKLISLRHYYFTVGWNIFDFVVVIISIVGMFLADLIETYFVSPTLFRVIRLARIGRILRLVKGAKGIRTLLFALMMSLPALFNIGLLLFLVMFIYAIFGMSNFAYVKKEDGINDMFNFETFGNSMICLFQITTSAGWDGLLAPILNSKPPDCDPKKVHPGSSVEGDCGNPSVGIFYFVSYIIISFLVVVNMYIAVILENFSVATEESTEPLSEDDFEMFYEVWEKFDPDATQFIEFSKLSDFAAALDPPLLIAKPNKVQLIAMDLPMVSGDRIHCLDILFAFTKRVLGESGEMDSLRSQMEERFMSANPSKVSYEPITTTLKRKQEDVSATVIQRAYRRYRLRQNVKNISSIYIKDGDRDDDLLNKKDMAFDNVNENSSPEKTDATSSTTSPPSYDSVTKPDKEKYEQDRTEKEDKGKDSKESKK", "assay": "not given", "details": "not given", "units": {"IC50 of inhibition of hNav1.7 currents, whole-cell patch clamp, HEK293T": "µM"}, "values": [
      {"molecule": "ACLGFGEKCNPSNDKCCKSSSLVCSQKRKWCKYDL", "note": "[Ca2a H28R]", "IC50 of inhibition of hNav1.7 currents, whole-cell patch clamp, HEK293T": 14.9},
      {"molecule": "ACLGFGEKCNPSNDKCCKSSSLVCSQKKKWCKYDL", "note": "[Ca2a H28K]", "IC50 of inhibition of hNav1.7 currents, whole-cell patch clamp, HEK293T": "> 20"},
      {"molecule": "ACLGKGEKCNPSNDKCCKSSSLVCSQKHKWCKYDL", "note": "[Ca2a F5K]", "IC50 of inhibition of hNav1.7 currents, whole-cell patch clamp, HEK293T": "> 20"},
      {"molecule": "ACLGFGEKCNPSNDKCCKSSSLVCSQKHKWCKKDL", "note": "[Ca2a Y33K]", "IC50 of inhibition of hNav1.7 currents, whole-cell patch clamp, HEK293T": "> 20"},
      {"molecule": "ACLGFGEKCNPSNDKCCKSSSLVCSQKHKKCKYDL", "note": "[Ca2a W30K]", "IC50 of inhibition of hNav1.7 currents, whole-cell patch clamp, HEK293T": "> 20"}
    ]},
    {"target": "human voltage-gated sodium ion channel Nav1.7 (human)", "assay": "not given", "details": "not given", "remark": "another data set of the same source", "units": {"IC50 of inhibition of hNav1.7 currents, whole-cell patch clamp, HEK293T": "µM"}, "values": [
      {"molecule": "ACLGFGEKCNPSNDKCCKSSSLVCSQAHKWCKYDL", "note": "[Ca2a K27A]", "IC50 of inhibition of hNav1.7 currents, whole-cell patch clamp, HEK293T": 4.07},
      {"molecule": "ACLGFGEKCNPSNDKCCKSSSLVCSQKHKWCAYDL", "note": "[Ca2a K32A]", "IC50 of inhibition of hNav1.7 currents, whole-cell patch clamp, HEK293T": "> 30"}
    ]},
    {"target": "human voltage-gated sodium ion channel Nav1.7 (human)", "assay": "not given", "details": "not given", "remark": "another data set of the same source", "units": {"IC50 of inhibition of hNav1.7 currents, whole-cell patch clamp, HEK293T": "µM"}, "values": [
      {"molecule": "CLGFGEKCNDKCCKSSSVCSQKHKWCKY", "note": "[truncated peptide T6 (from Ca2a)]", "IC50 of inhibition of hNav1.7 currents, whole-cell patch clamp, HEK293T": "> 100"},
      {"molecule": "CLGFGEKCPSNDKCCSSSLVCSQKHKWCKY", "note": "[truncated peptide T8 (from Ca2a)]", "IC50 of inhibition of hNav1.7 currents, whole-cell patch clamp, HEK293T": "> 100"},
      {"molecule": "CLGFGEKCNPSNDCCKSSSLVCSQKHKWCKY", "note": "[truncated peptide T9 (from Ca2a)]", "IC50 of inhibition of hNav1.7 currents, whole-cell patch clamp, HEK293T": 67.3},
      {"molecule": "CLGFGEKCNPSNKCCKSSSLVCSQKHKWCKY", "note": "[truncated peptide T10 (from Ca2a)]", "IC50 of inhibition of hNav1.7 currents, whole-cell patch clamp, HEK293T": 53.5},
      {"molecule": "CLGFGEKCNPSDKCCKSSSLVCSQKHKWCKY", "note": "[truncated peptide T11 (from Ca2a)]", "IC50 of inhibition of hNav1.7 currents, whole-cell patch clamp, HEK293T": 49.2},
      {"molecule": "CLGFGEKCNDKCCKSSSCSQKHKWCKY", "note": "[truncated peptide T4 (from Ca2a)]", "IC50 of inhibition of hNav1.7 currents, whole-cell patch clamp, HEK293T": "> 100"},
      {"molecule": "CLGFGEKCNPSKCCKSLVCQKHKWCKY", "note": "[truncated peptide T2 (from Ca2a)]", "IC50 of inhibition of hNav1.7 currents, whole-cell patch clamp, HEK293T": 16.5},
      {"molecule": "CLGFGEKCNDKCCKLVCSQHKWCKY", "note": "[truncated peptide T13 (from Ca2a)]", "IC50 of inhibition of hNav1.7 currents, whole-cell patch clamp, HEK293T": 8.89},
      {"molecule": "CLGFGEKCCCKSSSLVCSQKHKWCKY", "note": "[truncated peptide T1 (from Ca2a)]", "IC50 of inhibition of hNav1.7 currents, whole-cell patch clamp, HEK293T": 14.7},
      {"molecule": "CLGFGEKCNPSDKCCKSSSVCSQKHKWCKY", "note": "[truncated peptide T7 (from Ca2a)]", "IC50 of inhibition of hNav1.7 currents, whole-cell patch clamp, HEK293T": "> 100"},
      {"molecule": "CLGFGEKCNNDKCCKSLVCQKHKWCKY", "note": "[truncated peptide T3 (from Ca2a)]", "IC50 of inhibition of hNav1.7 currents, whole-cell patch clamp, HEK293T": 39.6},
      {"molecule": "CLGFGEKCNPDCCKLVCSQKWCKY", "note": "[truncated peptide T12 (from Ca2a)]", "IC50 of inhibition of hNav1.7 currents, whole-cell patch clamp, HEK293T": "> 50"},
      {"molecule": "CLGFGEKCNDKCCKSSSLCSQKHKWCKY", "note": "[truncated peptide T5 (from Ca2a)]", "IC50 of inhibition of hNav1.7 currents, whole-cell patch clamp, HEK293T": "> 100"}
    ]},
    {"target": "human Nav1.7 (hNav1.7) channel (Homo sapiens, UniProt Q15858)", "sequence (Q15858 whole entry)": "as the sequence (Q15858 whole entry) above", "assay": "Whole-cell patch-clamp inhibition of hNav1.7 currents", "format": "cell-based", "details": "compared to Ca2a, WT hNav1.7 in HEK293T", "values": [
      {"molecule": "K18A: K18A mutant of Ca2a (ACLGFGEKCNPSNDKCCASSSLVCSQKHKWCKYDL; ends and bridges not checked; cysteine pairing not given here) [Peptide K18A]", "inhibitory activity against Nav1.7 (in words)": "retained most of its inhibitory activity"}
    ]},
    {"target": "human Nav1.7 (hNav1.7) channel (Homo sapiens, UniProt Q15858)", "assay": "Whole-cell patch-clamp inhibition of hNav1.7 currents", "format": "cell-based", "details": "ratio of mutant IC50 to WT peptide IC50, hNav1.7 in HEK293T", "units": {"fold change in IC50 / affinity for Nav1.7 compared to WT Ca2a": "fold"}, "values": [
      {"molecule": "W30A: W30A mutant of Ca2a (ACLGFGEKCNPSNDKCCKSSSLVCSQKHKACKYDL; ends and bridges not checked; cysteine pairing not given here) [Peptide W30A]", "fold change in IC50 / affinity for Nav1.7 compared to WT Ca2a": 20}
    ]}
  ]
}
